Assay results reported in patent US20200024360A1 (Janssen / Centocor, published 2020).

Molecular target: T1, human PSMA (prostate specific membrane antigen), full length (human, UniProt Q04609 1-750)
T1 construct: On LNCaP or C4-2B cells (endogenous) or transduced HEK293F cells; also called FOLH1_HUMAN; hPSMA
Assay: flow cytometry cell binding assay, bispecific antibody titrated on LNCaP cells (human PSMA)
Method: PSMA×CD3 bispecific antibodies were tested for binding to PSMA positive cell lines LNCAP, human PSMA-HEK, Chimpanzee-PSMA-HEK and Cynomolgous monkey PSMA-HEK. To assess the binding capabilities of the PSMA bispecific antibodies, the cell-binding assay was utilized (described previously). Briefly, PSMA expressing tumor cells are bound by bispecific antibodies at known concentrations and the bound antibody is detected by an anti-human kappa light chain PE conjugated detection reagent (Invitrogen). The Mean Fluorescents Intensity (MFI) is the measure of bound bispecific antibody. The MFI is converted to a relative EC₅₀. EC₅₀ is a commonly used dose-response curve, where the half maximal effective concentration or the EC₅₀ point is defined as the inflection point of the curve. EC₅₀ s were determined by measuring cell bound bispecific and known concentrations. […] The dose response curves were then diluted down to that of background or no bispecific binding. The inflection point of this curve reflects the EC₅₀ point. The calculated EC₅₀ is determined by taking the ug/ml amount of bispecific antibody at the EC₅₀ point and converting it to a molarity value based on the MW of the bispecific antibody. Bispecific antibodies were normalized for protein concentration and then incubated with the same number of cells expressing either human or cyno PSMA. The MFI at each concentration was collected by flow cytometry and plotted as a function of concentration. Data was transformed via log 10 and then plotted. Nonlinear regression of binding curves was done to determine EC₅₀ s. These relative values were used for ranking PSMA binding to target cells.
PSMA×CD3 bispecific antibodies were tested for binding to PSMA positive cell line, LNCAP, to PSMA negative cell line, PC3. To assess the binding capabilities of the PSMA bispecific antibodies, the cell-binding assay was utilized (described previously). Bispecific antibodies were normalized for protein concentration and then incubated with the same number of cells expressing either human or cyno PSMA. The MFI at each concentration was collected by flow cytometry and plotted as a function of concentration.

T1 sequence (Q04609 whole entry): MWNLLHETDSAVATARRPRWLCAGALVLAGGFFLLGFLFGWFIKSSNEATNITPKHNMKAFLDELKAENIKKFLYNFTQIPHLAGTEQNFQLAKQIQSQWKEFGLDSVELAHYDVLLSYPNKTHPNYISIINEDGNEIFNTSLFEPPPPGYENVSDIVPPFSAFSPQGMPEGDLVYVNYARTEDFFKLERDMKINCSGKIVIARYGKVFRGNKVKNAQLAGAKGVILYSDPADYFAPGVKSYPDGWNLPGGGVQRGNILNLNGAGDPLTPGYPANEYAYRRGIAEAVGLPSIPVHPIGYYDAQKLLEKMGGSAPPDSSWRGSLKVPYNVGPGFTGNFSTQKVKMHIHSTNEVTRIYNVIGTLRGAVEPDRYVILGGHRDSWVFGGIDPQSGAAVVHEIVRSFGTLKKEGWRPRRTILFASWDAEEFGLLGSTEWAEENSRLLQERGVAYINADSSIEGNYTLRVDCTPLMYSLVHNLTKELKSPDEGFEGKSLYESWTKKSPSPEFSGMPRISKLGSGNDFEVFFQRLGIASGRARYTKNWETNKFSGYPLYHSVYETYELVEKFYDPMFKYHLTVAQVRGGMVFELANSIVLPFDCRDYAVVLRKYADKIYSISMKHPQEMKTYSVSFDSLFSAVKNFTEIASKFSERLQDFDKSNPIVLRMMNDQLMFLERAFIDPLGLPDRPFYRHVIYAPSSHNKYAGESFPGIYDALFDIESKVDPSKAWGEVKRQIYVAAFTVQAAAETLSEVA

Binder	binding result
PS3B60 (bispecific antibody, human IgG4 S228P, kappa, lambda, F234A L235A, IgG4 PAA; PSMA arm first, then CD3 arm (F405L, R409K); also called PSMB344 x CD3B219) heavy 1: not shown light 1: not shown heavy 2: EVQLVESGGGLVQPGGSLRLSCAASGFTFNTYAMNWVRQAPGKGLEWVARIRSKYNNYATYYAASVKGRFTISRDDSKNSLYLQMNSLKTEDTAVYYCARHGNFGNSYVSWFAYWGQGTLVTVSSASTKGPSVFPLAPCSRSTSESTAALGCLVKDYFPEPVTVSWNSGALTSGVHTFPAVLQSSGLYSLSSVVTVPSSSLGTKTYTCNVDHKPSNTKVDKRVESKYGPPCPPCPAPEAAGGPSVFLFPPKPKDTLMISRTPEVTCVVVDVSQEDPEVQFNWYVDGVEVHNAKTKPREEQFNSTYRVVSVLTVLHQDWLNGKEYKCKVSNKGLPSSIEKTISKAKGQPREPQVYTLPPSQEEMTKNQVSLTCLVKGFYPSDIAVEWESNGQPENNYKTTPPVLDSDGSFLLYSKLTVDKSRWQEGNVFSCSVMHEALHNHYTQKSLSLSLGK light 2: QTVVTQEPSLTVSPGGTVTLTCRSSTGAVTTSNYANWVQQKPGQAPRGLIGGTNKRAPGTPARFSGSLLGGKAALTLSGVQPEDEAEYYCALWYSNLWVFGGGTKLTVLGQPKAAPSVTLFPPSSEELQANKATLVCLISDFYPGAVTVAWKADSSPVKAGVETTTPSKQSNNKYAASSYLSLTPEQWKSHRSYSCQVTHEGSTVEKTVAPTECS	binds
PS3B63 (bispecific antibody, human IgG4 S228P, kappa, lambda, F234A L235A, IgG4 PAA; PSMA arm first, then CD3 arm (F405L, R409K); also called PSMB347 x CD3B219) heavy 1: not shown light 1: not shown heavy 2: EVQLVESGGGLVQPGGSLRLSCAASGFTFNTYAMNWVRQAPGKGLEWVARIRSKYNNYATYYAASVKGRFTISRDDSKNSLYLQMNSLKTEDTAVYYCARHGNFGNSYVSWFAYWGQGTLVTVSSASTKGPSVFPLAPCSRSTSESTAALGCLVKDYFPEPVTVSWNSGALTSGVHTFPAVLQSSGLYSLSSVVTVPSSSLGTKTYTCNVDHKPSNTKVDKRVESKYGPPCPPCPAPEAAGGPSVFLFPPKPKDTLMISRTPEVTCVVVDVSQEDPEVQFNWYVDGVEVHNAKTKPREEQFNSTYRVVSVLTVLHQDWLNGKEYKCKVSNKGLPSSIEKTISKAKGQPREPQVYTLPPSQEEMTKNQVSLTCLVKGFYPSDIAVEWESNGQPENNYKTTPPVLDSDGSFLLYSKLTVDKSRWQEGNVFSCSVMHEALHNHYTQKSLSLSLGK light 2: QTVVTQEPSLTVSPGGTVTLTCRSSTGAVTTSNYANWVQQKPGQAPRGLIGGTNKRAPGTPARFSGSLLGGKAALTLSGVQPEDEAEYYCALWYSNLWVFGGGTKLTVLGQPKAAPSVTLFPPSSEELQANKATLVCLISDFYPGAVTVAWKADSSPVKAGVETTTPSKQSNNKYAASSYLSLTPEQWKSHRSYSCQVTHEGSTVEKTVAPTECS	binds
PS3B62 (bispecific antibody, human IgG4 S228P, kappa, lambda, F234A L235A, IgG4 PAA; PSMA arm first, then CD3 arm (F405L, R409K); also called PSMB346 x CD3B219) heavy 1: not shown light 1: not shown heavy 2: EVQLVESGGGLVQPGGSLRLSCAASGFTFNTYAMNWVRQAPGKGLEWVARIRSKYNNYATYYAASVKGRFTISRDDSKNSLYLQMNSLKTEDTAVYYCARHGNFGNSYVSWFAYWGQGTLVTVSSASTKGPSVFPLAPCSRSTSESTAALGCLVKDYFPEPVTVSWNSGALTSGVHTFPAVLQSSGLYSLSSVVTVPSSSLGTKTYTCNVDHKPSNTKVDKRVESKYGPPCPPCPAPEAAGGPSVFLFPPKPKDTLMISRTPEVTCVVVDVSQEDPEVQFNWYVDGVEVHNAKTKPREEQFNSTYRVVSVLTVLHQDWLNGKEYKCKVSNKGLPSSIEKTISKAKGQPREPQVYTLPPSQEEMTKNQVSLTCLVKGFYPSDIAVEWESNGQPENNYKTTPPVLDSDGSFLLYSKLTVDKSRWQEGNVFSCSVMHEALHNHYTQKSLSLSLGK light 2: QTVVTQEPSLTVSPGGTVTLTCRSSTGAVTTSNYANWVQQKPGQAPRGLIGGTNKRAPGTPARFSGSLLGGKAALTLSGVQPEDEAEYYCALWYSNLWVFGGGTKLTVLGQPKAAPSVTLFPPSSEELQANKATLVCLISDFYPGAVTVAWKADSSPVKAGVETTTPSKQSNNKYAASSYLSLTPEQWKSHRSYSCQVTHEGSTVEKTVAPTECS	binds
PS3B70 (bispecific antibody, human IgG4 S228P, kappa, lambda, F234A L235A, IgG4 PAA; PSMA arm first, then CD3 arm (F405L, R409K); also called PSMB358 x CD3B219) heavy 1: not shown light 1: not shown heavy 2: EVQLVESGGGLVQPGGSLRLSCAASGFTFNTYAMNWVRQAPGKGLEWVARIRSKYNNYATYYAASVKGRFTISRDDSKNSLYLQMNSLKTEDTAVYYCARHGNFGNSYVSWFAYWGQGTLVTVSSASTKGPSVFPLAPCSRSTSESTAALGCLVKDYFPEPVTVSWNSGALTSGVHTFPAVLQSSGLYSLSSVVTVPSSSLGTKTYTCNVDHKPSNTKVDKRVESKYGPPCPPCPAPEAAGGPSVFLFPPKPKDTLMISRTPEVTCVVVDVSQEDPEVQFNWYVDGVEVHNAKTKPREEQFNSTYRVVSVLTVLHQDWLNGKEYKCKVSNKGLPSSIEKTISKAKGQPREPQVYTLPPSQEEMTKNQVSLTCLVKGFYPSDIAVEWESNGQPENNYKTTPPVLDSDGSFLLYSKLTVDKSRWQEGNVFSCSVMHEALHNHYTQKSLSLSLGK light 2: QTVVTQEPSLTVSPGGTVTLTCRSSTGAVTTSNYANWVQQKPGQAPRGLIGGTNKRAPGTPARFSGSLLGGKAALTLSGVQPEDEAEYYCALWYSNLWVFGGGTKLTVLGQPKAAPSVTLFPPSSEELQANKATLVCLISDFYPGAVTVAWKADSSPVKAGVETTTPSKQSNNKYAASSYLSLTPEQWKSHRSYSCQVTHEGSTVEKTVAPTECS	binds
PS3B64 (bispecific antibody, human IgG4 S228P, kappa, lambda, F234A L235A, IgG4 PAA; PSMA arm first, then CD3 arm (F405L, R409K); also called PSMB349 x CD3B219) heavy 1: not shown light 1: not shown heavy 2: EVQLVESGGGLVQPGGSLRLSCAASGFTFNTYAMNWVRQAPGKGLEWVARIRSKYNNYATYYAASVKGRFTISRDDSKNSLYLQMNSLKTEDTAVYYCARHGNFGNSYVSWFAYWGQGTLVTVSSASTKGPSVFPLAPCSRSTSESTAALGCLVKDYFPEPVTVSWNSGALTSGVHTFPAVLQSSGLYSLSSVVTVPSSSLGTKTYTCNVDHKPSNTKVDKRVESKYGPPCPPCPAPEAAGGPSVFLFPPKPKDTLMISRTPEVTCVVVDVSQEDPEVQFNWYVDGVEVHNAKTKPREEQFNSTYRVVSVLTVLHQDWLNGKEYKCKVSNKGLPSSIEKTISKAKGQPREPQVYTLPPSQEEMTKNQVSLTCLVKGFYPSDIAVEWESNGQPENNYKTTPPVLDSDGSFLLYSKLTVDKSRWQEGNVFSCSVMHEALHNHYTQKSLSLSLGK light 2: QTVVTQEPSLTVSPGGTVTLTCRSSTGAVTTSNYANWVQQKPGQAPRGLIGGTNKRAPGTPARFSGSLLGGKAALTLSGVQPEDEAEYYCALWYSNLWVFGGGTKLTVLGQPKAAPSVTLFPPSSEELQANKATLVCLISDFYPGAVTVAWKADSSPVKAGVETTTPSKQSNNKYAASSYLSLTPEQWKSHRSYSCQVTHEGSTVEKTVAPTECS	binds
PS3B61 (bispecific antibody, human IgG4 S228P, kappa, lambda, F234A L235A, IgG4 PAA; PSMA arm first, then CD3 arm (F405L, R409K); also called PSMB345 x CD3B219) heavy 1: not shown light 1: not shown heavy 2: EVQLVESGGGLVQPGGSLRLSCAASGFTFNTYAMNWVRQAPGKGLEWVARIRSKYNNYATYYAASVKGRFTISRDDSKNSLYLQMNSLKTEDTAVYYCARHGNFGNSYVSWFAYWGQGTLVTVSSASTKGPSVFPLAPCSRSTSESTAALGCLVKDYFPEPVTVSWNSGALTSGVHTFPAVLQSSGLYSLSSVVTVPSSSLGTKTYTCNVDHKPSNTKVDKRVESKYGPPCPPCPAPEAAGGPSVFLFPPKPKDTLMISRTPEVTCVVVDVSQEDPEVQFNWYVDGVEVHNAKTKPREEQFNSTYRVVSVLTVLHQDWLNGKEYKCKVSNKGLPSSIEKTISKAKGQPREPQVYTLPPSQEEMTKNQVSLTCLVKGFYPSDIAVEWESNGQPENNYKTTPPVLDSDGSFLLYSKLTVDKSRWQEGNVFSCSVMHEALHNHYTQKSLSLSLGK light 2: QTVVTQEPSLTVSPGGTVTLTCRSSTGAVTTSNYANWVQQKPGQAPRGLIGGTNKRAPGTPARFSGSLLGGKAALTLSGVQPEDEAEYYCALWYSNLWVFGGGTKLTVLGQPKAAPSVTLFPPSSEELQANKATLVCLISDFYPGAVTVAWKADSSPVKAGVETTTPSKQSNNKYAASSYLSLTPEQWKSHRSYSCQVTHEGSTVEKTVAPTECS	binds
PS3B71 (bispecific antibody, human IgG4 S228P, kappa, lambda, F234A L235A, IgG4 PAA; PSMA arm first, then CD3 arm (F405L, R409K); also called PSMB359 x CD3B219) heavy 1: not shown light 1: not shown heavy 2: EVQLVESGGGLVQPGGSLRLSCAASGFTFNTYAMNWVRQAPGKGLEWVARIRSKYNNYATYYAASVKGRFTISRDDSKNSLYLQMNSLKTEDTAVYYCARHGNFGNSYVSWFAYWGQGTLVTVSSASTKGPSVFPLAPCSRSTSESTAALGCLVKDYFPEPVTVSWNSGALTSGVHTFPAVLQSSGLYSLSSVVTVPSSSLGTKTYTCNVDHKPSNTKVDKRVESKYGPPCPPCPAPEAAGGPSVFLFPPKPKDTLMISRTPEVTCVVVDVSQEDPEVQFNWYVDGVEVHNAKTKPREEQFNSTYRVVSVLTVLHQDWLNGKEYKCKVSNKGLPSSIEKTISKAKGQPREPQVYTLPPSQEEMTKNQVSLTCLVKGFYPSDIAVEWESNGQPENNYKTTPPVLDSDGSFLLYSKLTVDKSRWQEGNVFSCSVMHEALHNHYTQKSLSLSLGK light 2: QTVVTQEPSLTVSPGGTVTLTCRSSTGAVTTSNYANWVQQKPGQAPRGLIGGTNKRAPGTPARFSGSLLGGKAALTLSGVQPEDEAEYYCALWYSNLWVFGGGTKLTVLGQPKAAPSVTLFPPSSEELQANKATLVCLISDFYPGAVTVAWKADSSPVKAGVETTTPSKQSNNKYAASSYLSLTPEQWKSHRSYSCQVTHEGSTVEKTVAPTECS	binds
